The series has as its system MS2 coat protein. Put plainly: apparent KD of MS2 coat protein; designed switch direction (-1 OFF switch, 1 ON switch): -1; higher = weaker reporter binding. The method, boiled down: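 Transcription of designed RNA switches on Illumina chips was done by stalled E. coli RNA polymerase. SNAP-549-labelled MS2 coat protein was then titrated in doubling steps from 0.7 or 1.5 nM to 3 µM, with steps of 0.8–1.5 h at the lowest and 10–20 min at the highest concentration. The per-design median over clusters of curve-fitted normalised fluorescence is reported as apparent KD.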

[1] abbreviates: Eterna round: R95, input ligand: FMN 200 uM.
[2] abbreviates: Eterna round: R95, input ligand: microRNA oligo, concentration not stated.
[3] abbreviates: Eterna round: R95, input ligand: none.
Setting [4] is: input ligand: microRNA oligo, concentration not stated.

With “AAAUUAGCAAGUAGGUCCGACAUGAGGAUCACCCAUGUAAUCUAAAAUUACGCUGCACGAAAGUGCGCUCGUCUUAG [Sensor-V1 #12] (Eterna round: R97, puzzle: Sensor, turn-off variant 1)”, the “apparent KD of MS2 coat protein” value runs as follows: (input ligand: FMN 200 uM) 439 nM; (input ligand: none) 385 nM.
As to “CUGAGGUAGCGGUCCUAUGACAUGAGGAUCACCCAUGUACCUUGCUUUGAGCUUUUUGCUCGUCUUAUGAUUCUCGG [JL Atriat mod 6] (puzzle: Sensor v3, turn-off variant 1)”, the “apparent KD of MS2 coat protein” value is, setting by setting: under setting [1], 472 nM; under setting [2], 283 nM; under setting [3], 462 nM.
As for “GGUGCGUAUGUUAGGAUAUGCUGGUCCUUGGAUCGGCAGAAGGUACAUGAGGAUCACCCAUGUGGUGUCGUUCC [salish99_Bmod_ex4_103] (puzzle: Brourd's mod of Exclusion 4)”, the “apparent KD of MS2 coat protein” value under setting [2] was found to be 50.8 nM.
On to “CGUGCGUAUGUGAGGAUAUGCUGGUCCUUGGAUCAGCAGAAGGCACAUGAGGAUCACCCAUGUGGUGUCGUACG [salish99_Bmod_Ex4_018] (puzzle: Brourd's mod of Exclusion 4)”, for which the “apparent KD of MS2 coat protein” value under setting [1] was 18.7 nM, the “apparent KD of MS2 coat protein” value under setting [2] turned out to be 182 nM and the “apparent KD of MS2 coat protein” value under setting [3] is 395 nM.
Regarding “UUUAUUAAUUAAUAUAAUAAGAUCACAUGAGGAUCACCCAUGUAGGAUAUCAGCUCGUGUAGAGCUGAGAAGGACAUAAUUAUA [ExNG3/1-B3] (Eterna round: R96, puzzle: Exclusion NG 3)”, the “apparent KD of MS2 coat protein” value turned out to be 108 nM (input ligand: FMN 200 uM), 27 nM under setting [4] and 34.3 nM (input ligand: none).
For the sequence “GUGUUUUAUGUAGGAUAUGCAUACUGUUAGUAUGCAGAAGGACAUGAGGAUCACCCAUGUAUAUUAUUAUUAUAUAUCAUACAU [MOD2 of Hoglahoo's Title] (Eterna round: R96, puzzle: Exclusion NG 1)”, the “apparent KD of MS2 coat protein” value reads like this: (input ligand: FMN 200 uM) 98 nM; under setting [4], 16 nM; (input ligand: none) 18.9 nM.
“AAGUACCGUCACGAAAGUGAUGGUACAACAAGCAUGUAAACAUGAGGAUCACCCAUGUCCUCAUAUGCUCGUCUUAU [Sensor 3 - 63] (puzzle: Sensor v3, turn-off variant 2)”: the “apparent KD of MS2 coat protein” value by setting is: under setting [1], 480 nM; under setting [2], 32.5 nM; under setting [3], 533 nM.
As for “CUGUUUUUCGCAGGAUAUGCUCCUCCAUUAUUUGCAGAAGGGCGUUAAACAUGAGGAUCACCCAUGUAUGGUAAUGACUAUUGC [JR_ExcNG1_Sub066] (Eterna round: R96, puzzle: Exclusion NG 1)”, the “apparent KD of MS2 coat protein” value amounted to 27.4 nM (input ligand: FMN 200 uM), 12.6 nM under setting [4] and 19.6 nM (input ligand: none).
Take “UACUUAUGAGUCAGGAUAUGUGAGGCGGAAGCGAUACAGAAGGGACAUGAGGAUCACCCAUGUUGGGUUCCUGU [Eternabot (Original) Solution 32] (Eterna round: R97, puzzle: Brourd's mod of Exclusion 4)”: the “apparent KD of MS2 coat protein” value reads like this: (input ligand: FMN 200 uM) 526 nM; (input ligand: none) 83.5 nM.
As for “UAGCAUUGCCAAAGGUAGUGCAUUACAUGAGGAUCACCCAUGUAGGAUAUGGUAGGCAAAGCUUACCAGAAGGACAUGAUAAUU [Mat - Exclusion NG 3 - Mod of JL - D16] (Eterna round: R96, puzzle: Exclusion NG 3)”, the “apparent KD of MS2 coat protein” value is, setting by setting: (input ligand: FMN 200 uM) 104 nM; under setting [4], 36.5 nM; (input ligand: none) 47.8 nM.
In the case of “ACAAGCAGAGAGUAAAUGGACAUGAGGAUCACCCAUGUGAGUCCGAAGAGAUAAGAUAUAUUGUCGGCUCGUCUUAU [AK-miRNA-r3-21] (Eterna round: R97, puzzle: Sensor, turn-off variant 1)”, the “apparent KD of MS2 coat protein” value (input ligand: FMN 200 uM) was 105 nM and the “apparent KD of MS2 coat protein” value (input ligand: none) was 105 nM.
In the case of “ACCAGUAUAUGGAGAUUUUACAUGAGGAUCACCCAUGUUGGGACAGCUUUUUGCUUGUCUUAUCCUACUUUGUGUGU [Design #3] (Eterna round: R97, puzzle: Sensor, turn-off variant 1)”, the “apparent KD of MS2 coat protein” value is, setting by setting: (input ligand: FMN 200 uM) 32.2 nM; (input ligand: none) 36 nM.
For “UAUUAACAAGCUAGAUCCCACAUGAGGAUCACCCAUGUGCUCGUCUUAUAAGGUACUGUGACGAAAGUCACGGUACC [Sensor 3, v1 - 78] (puzzle: Sensor v3, turn-off variant 1)”, the “apparent KD of MS2 coat protein” value runs as follows: under setting [1], 37.8 nM; under setting [2], 188 nM; under setting [3], 32.3 nM.
Regarding “UCUGGUCGAGGAUAUACAUGAGGAUCACCCAUGUAGAUCAACCAGCGAUAGCUGGAAUGUAGAAGGCGACCAGA [E3/5-A3] (Eterna round: R97, puzzle: Exclusion 3)”, the “apparent KD of MS2 coat protein” value was found to be 381 nM (input ligand: FMN 200 uM) and 30.4 nM (input ligand: none).
As to “GAUUGACAUGAGGAUCACCCAUGUGAGGAUAUCGGCUGGACCGUGUUGGCUUCCGUCUCGAGAAGGCGCAUAGG [Exclusion 1 V43] (puzzle: Exclusion 1)”, the “apparent KD of MS2 coat protein” value under setting [1] was 137 nM, the “apparent KD of MS2 coat protein” value under setting [2] stood at 39.7 nM and the “apparent KD of MS2 coat protein” value under setting [3] was 44.4 nM.
As for “CCGGAAAUGCAGGAUAUCGUAUCGGAUACGAUACGAGAAGGGUAUACAUGAGGAUCACCCAUGUGUCCUACCGG [Fiskers Ex 6 - 49] (puzzle: Exclusion 6)”, the “apparent KD of MS2 coat protein” value under setting [2] came out at 18.3 nM.
Turning to “AAAUAACAAGCGAGAUCCUACAUGAGGAUCACCCAUGUGCUCGUCUUAAUAAGUACUAUCACGAAAGUGAUAGUACA [Mat - Sensor v3 - turn-off var 1 - Eli Mod - D67] (puzzle: Sensor v3, turn-off variant 1)”, the “apparent KD of MS2 coat protein” value reads like this: under setting [1], 16.6 nM; under setting [2], 471 nM; under setting [3], 16 nM.
For the sequence “GGUAGAGUGGUAGGAUAUCCGGCUGUUUCAGUCGGAGAAGGACCACAGUCACUGGGUCCAAAUAUGGGUGACCAUGUAUCUACC [pwkr exNG1 F6.6] (Eterna round: R96, puzzle: Exclusion NG 1)”, the “apparent KD of MS2 coat protein” value was determined as 984 nM (input ligand: FMN 200 uM), 337 nM under setting [4] and 371 nM (input ligand: none).
Take “AGCUAGUGAGGAUAUACAAGAAUAUAAACGAACAUAAAGGGACAUGAGGAUCACCCAUGUAGAAGGCACUAGCA [Diamond 73] (Eterna round: R96, puzzle: Exclusion 2)”: under setting [4], the “apparent KD of MS2 coat protein” value worked out at 29.3 nM.
As for “UUAUUACAAGCAAGAUCUCACAUGAGGAUCACCCAUGUGCUCGUCUUAAAAGGUACUGUGACGAAAGUCACGGUACC [Eli 100 v3] (Eterna round: R97, puzzle: Sensor, turn-off variant 1)”, the “apparent KD of MS2 coat protein” value is, setting by setting: (input ligand: FMN 200 uM) 16.4 nM; (input ligand: none) 14.9 nM.
In the case of “AUCCUGCGAGGAUAUACAUAAUUUUUUUCGUUUUGACUCGAACAUGAGGAUCACCCAUGUAGAAGGUGCUUCAC [JR_Ex2_Sub027] (Eterna round: R97, puzzle: Exclusion 2)”, the “apparent KD of MS2 coat protein” value by setting is: (input ligand: FMN 200 uM) 122 nM; (input ligand: none) 94.8 nM.
For “UAUAUAUAGUAAGGAUAUGUAUAUAAUUUAUAAACAGAAGGUACUGACAUGAGGAUCACCCAUGUUUUAGUGUGGGCAUGUAGA [JMF's solution 55] (Eterna round: R96, puzzle: Exclusion NG 1)”, the “apparent KD of MS2 coat protein” value under setting [4] is 64.4 nM.
Take “UACAUGAGGAUCACCCAUGUUUUGUCGUGUAUGGUAUUUAUCUAGGAUAUCAAUGUAUAUAUUUAUGAGAAGGAGAAUAUUAAU [JMF's solution 42] (Eterna round: R96, puzzle: Exclusion NG 3)”: the “apparent KD of MS2 coat protein” value (input ligand: FMN 200 uM) was 37.4 nM, the “apparent KD of MS2 coat protein” value under setting [4] came out at 25.1 nM and the “apparent KD of MS2 coat protein” value (input ligand: none) is 34 nM.
For “UUUUUAUAUGAAGGAUAUACUUAACAUGAGGAUCACCCAUGUGGUGUUGUGAGUGAGUGAGUUUAGUAGAAGGUCAUUUCUUUU [JMF's solution 78] (Eterna round: R96, puzzle: Exclusion NG 2)” the same measures were 440 nM, 411 nM and 462 nM.
On to “UAUUAAUGCAAGGAUAUGCUUUUAAUUUUUUUUGCAGAAGGUGCAACAUGAGGAUCACCCAUGUUUGAGGGUAU [JR_E6_Sub030] (puzzle: Exclusion 6)”, for which the “apparent KD of MS2 coat protein” value is, setting by setting: under setting [1], 68.4 nM; under setting [2], 59 nM; under setting [3], 53.8 nM.
On to “UGGUGGAAGCAGGAUAUGCUAGAAGUGUAGAAUGCAGAAGGGCUAACAUGAGGAUCACCCAUGUAAGAGGUGUU [JR_E6_Sub052] (puzzle: Exclusion 6)”, for which, under setting [2], the “apparent KD of MS2 coat protein” value came out at 296 nM.
Consider “ACCUCACAUGAGGAUCACCCAUGUAAGGAUAUCUUCGCUUUGACGUUGCUCUAUGCGAAGAGAAGGUACACGGA [Xeteed] (Eterna round: R97, puzzle: Exclusion 1)”, for which the “apparent KD of MS2 coat protein” value runs as follows: (input ligand: FMN 200 uM) 84.8 nM; (input ligand: none) 20.6 nM.
Turning to “AGGAAUGAAGGAUAUACAUGAGGAUCACCCAUGUAAAAAAAGUCGUUUAUUGUGUCAUGUAGAAGGUCAAGAAG [JR_Exclusion3_Sub002] (puzzle: Exclusion 3)”, the “apparent KD of MS2 coat protein” value is, setting by setting: under setting [1], 29.6 nM; under setting [2], 29.6 nM; under setting [3], 33 nM.
“UUAAUUAAUUAAGGCUGAAGAUCACAUGAGGAUCACCCAUGUAAGGAUAUCAGCUCGUUUAGAGCUGAGAAGGUACAUGCAGCC [ExNG3/18-B2] (Eterna round: R96, puzzle: Exclusion NG 3)”: the “apparent KD of MS2 coat protein” value reads like this: (input ligand: FMN 200 uM) 160 nM; under setting [4], 568 nM; (input ligand: none) 370 nM.
Turning to “GGUCUACAUGAGGAUCACCCAUGUAAGGAUAUCUACAUUGAAGCUUCGGCUUCAAUGUAGAGAAGGUGCAUAAU [E1/11-B1] (Eterna round: R97, puzzle: Exclusion 1)”, the “apparent KD of MS2 coat protein” value by setting is: (input ligand: FMN 200 uM) 37.3 nM; (input ligand: none) 31.4 nM.

Source of the values: the supplement of paper PMC9170038.
